Data as given in patent US20190345227A1.

Biological target: SpyCatcher-elastin-CarHC-elastin-SpyCatcher
Test: cell-based or functional assay

mCherry
free mCherry detected in the supernatant of the AAA+BCB hydrogel, under both dark and bright conditions: 50%
